From patent publication US20230312753A1 (IMMUNORIZON, published 2023)
Substitutions are numbered along the chain they refer to.

T1: NKG2D on cells (UniProt P26718 1-216, limits assumed)
T1 construct: whole, on cells
T1 sequence (looked up): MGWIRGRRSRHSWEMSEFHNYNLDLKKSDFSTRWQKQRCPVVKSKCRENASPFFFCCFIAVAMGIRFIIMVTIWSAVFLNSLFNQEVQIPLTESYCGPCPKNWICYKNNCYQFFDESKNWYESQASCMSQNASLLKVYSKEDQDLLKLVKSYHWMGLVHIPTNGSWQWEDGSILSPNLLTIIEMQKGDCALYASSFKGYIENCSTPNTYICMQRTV

T2: NKG2D-ECD-hFc (human, UniProt P26718 73-216)
T2 construct: extracellular domain; Lot 20200413002, 'provided by CP'; also called hNKG2D-ECD-hFc; not shown: human Fc (hFc)
T2 sequence (looked up): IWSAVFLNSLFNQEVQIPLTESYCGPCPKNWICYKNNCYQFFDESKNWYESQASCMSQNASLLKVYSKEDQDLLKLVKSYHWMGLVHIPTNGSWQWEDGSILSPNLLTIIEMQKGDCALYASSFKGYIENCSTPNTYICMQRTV

B1: IM-1272 bi-NKG2A scFv Tribody (other)
heavy: GGSGGSEVQLVESGGGLVQPGGSLRLSCAASGFTFNTYAMNWVRQAPGKGLEWVARIRSKYNNYATYYADSVKDRFTISRDDSKNTLYLQMNSLRAEDTAVYYCVRHGNFGNSYVSWFAYWGQGTMVTVSSASTKGPSVFPLAPSSKSTSGGTAALGCLVKDYFPEPVTVSWNSGALTSGVHTFPAVLQSSGLYSLSSVVTVPSSSLGTQTYICNVNHKPSNTKVDKRVEPKSCPPCGGGGSDIQMTQSPSSLSASVGDRVTITCRASENIYSYLAWYQQKPGKAPKLLIYNAKTLAEGVPSRFSGSGSGTDFTLTISSLQPEDFATYYCQHHYGTPRTFGGGTKVEIKGGGGSGGGGSGGGGSQVQLVQSGAEVKKPGASVKVSCKASGYTFTSYWMNWVRQAPGQGLEWMGRIDPYDSETHYAQKLQGRVTMTTDTSTSTAYMELRSLRSDDTAVYYCARGGYDFDVGTLYWFFDVWGQGTTVTVSSGGGGSDIQMTQSPSSLSASVGDRVTITCRASENIYSYLAWYQQKPGKAPKLLIYNAKTLAEGVPSRFSGSGSGTDFTLTISSLQPEDFATYYCQHHYGTPRTFGGGTKVEIKGGGGSGGGGSGGGGSQVQLVQSGAEVKKPGASVKVSCKASGYTFTSYWMNWVRQAPGQGLEWMGRIDPYDSETHYAQKLQGRVTMTTDTSTSTAYMELRSLRSDDTAVYYCARGGYDFDVGTLYWFFDVWGQGTTVTVSS
light: GGSGGSQAVVTQEPSLTVSPGGTVTLTCRSSTGAVTTSNYANWVQQKPGQAPRGLIGGTNKRAPGTPARFSGSLLGGKAALTLSGVQPEDEAEYYCALWYSNLWVFGGGTKLTVLGQPKAAPSVTLFPPSSEELQANKATLVCLISDFYPGAVTVAWKADSSPVKAGVETTTPSKQSNNKYAASSYLSLTPEQWKSHRSYSCQVTHEGSTVEKTVAPTECPPCSGGGSDIQMTQSPSSLSASVGDRVTITCRASQGISNYLAWFQQKPGKAPKSLIYRANRLQSGVPSRFSGSGSGTDFTLTISSLQPEDVATYYCLQYDDFPWTFGQGTKLEIKGGGGSGGGGSGGGGSGGGGSQVQLVQSGAEVKKPGASVKVSCKASGYTFTSFWMHWVRQAPGQGLEWMGRIDPNRGGTEYNEKAKSRVTMTADKSTSTAYMELSSLRSEDTAVYYCAGGNPYYPMDYWGQGTTVTVSS
notes: Tribody with anti-CD3 Fab, anti-5T4 scFv and two anti-NKG2A scFv in tandem
B2: IM-1273 bi-NKG2A scFv Tribody, CD3 mutant variant (other)
heavy: B1 heavy with R58G, K60G, Y61G, N63G, N112A, Y114A, V115R
light: B1 light with T37R, S38G, Y40A, K61A, W99G, N102G
notes: Two anti-NKG2A scFv in tandem, CD3 arm mutated; also called IM-1273 CD3 mutant variant
B3: IM-1091 Tribody, NKG2D mutant variant (other)
heavy: GGSGGSEVQLVESGGGLVQPGGSLRLSCAASGFTFNTYAMNWVRQAPGKGLEWVARIRSKYNNYATYYADSVKDRFTISRDDSKNTLYLQMNSLRAEDTAVYYCVRHGNFGNSYVSWFAYWGQGTMVTVSSASTKGPSVFPLAPSSKSTSGGTAALGCLVKDYFPEPVTVSWNSGALTSGVHTFPAVLQSSGLYSLSSVVTVPSSSLGTQTYICNVNHKPSNTKVDKRVEPKSCPPCGGGGSQSALTQPASVSGSPGQSITISCSGSSSNIGNNAVNWYQQLPGKAPKLLIYADDLLPSGVSDRFSGSKSGTSAFLAISGLQSEDEADYYCAAWDDSLNGPVFGGGTKLTVLGGGGSGGGGSGGGGSGGGGSQVQLVESGGGLVKPGGSLRLSCAASGFTFSSYGMHWVRQAPGKGLEWVAFIRYDGSNKYYADSVKGRFTISRDNSKNTLYLQMNSLRAEDTAVYYCAKDAGEGDGTYFDYWGQGTTVTVSS
light: B1 light
notes: CD3/5T4/NKG2D Tribody with mutated anti-NKG2D arm

Columns and labels:
[1] = molecular target: T3, NKG2A/CD94 on CHO cells (CHOK1-NKG2A-CD94) (human, UniProt P26715 1-233; Q13241 1-179, limits assumed); assay: FACS on CHO cells over-expressing human NKG2A (FIG. 45F), reference IM-1062
T3 construct: whole, on cells; also called CHO cells over-expressing NKG2A/CD94; CHO cell line over expressing ectopic NKG2A
Procedure: Suspension cultured cells was harvested directly, and adherent cell were digested using TrypLE Express Enzyme (cat: 12604-013, supplier Life technologies). Centrifuge at 1000 rpm for 5 min and discard the supernatant. Cells are suspended at a concentration of 2×10⁶/mL in FACS buffer (2% FBS in PBS) and add 100 µL/well of cell suspension to the plate (cat #3799, supplier Corning). Centrifuging the plates at 2000 rpm for 5 min and discard the supernatant. Re-suspend the cells in 100 µL/well of Tribody set antibodies (400 nM start, 4-fold dilution, 8 point including 0 point) and incubate the plate for 60 min at 4° C. Centrifuge the plate at 2000 rpm, 4° C. for 5 min and discard supernatant. Then wash the cells 3 times with 170 µL FACS buffer. Re-suspend the cells at 100 µL/well with secondary antibody (goat anti-human Ig Fab-FITC, Cat # 2085-02, Southern biotech) with 1:400 dilution and incubate the plate for 30 min at 4° C. in dark. Centrifuge the plate at 2000 rpm, 4° C. for 5 min and discard supernatant. […] The fluorescence intensity of the staining was measured using flow cytometer (BD, FACSVerse). The geometric mean fluorescence intensity (GMFI; median fluorescence intensity (MFI)) of set antibodies staining was calculated (BD FACSuite software). Dose-response curves were generated and EC50s for thetrispecific variants binding were calculated using GraphPad Prism software.

NKG2A-CD94-ECD-hFc [2] = molecular target: T4, NKG2A-CD94-ECD-hFc (human, UniProt P26715 94-233; Q13241 32-179, limits assumed); assay: ELISA on coated NKG2A-CD94-ECD-hFc (FIG. 43D), reference IM-1062
T4 construct: extracellular domain; Lot 20200724002, 'provided by CP'; the two-chain layout here is only the reading of the name; also called human NKG2A (recombinant); NKG2A antigen; not shown: human Fc (hFc)
Procedure: (§1) Methods: ELISA binding of Tribody/ProTribody antibody constructs to antigens: Dilute target protein (hCD3epsilon-His (cat # 10977-H08S, supplier Sino Biological); h5T4-His (cat# 19845-H08H, supplier Sino Biological); NKG2A-CD94-ECD-hFc, Lot:20200724002, provided by CP; or NKG2D-ECD-hFc, Lot: 20200413002, provided by CP) into PBS with final concentration of 0.01 µg/mL for hCD3epsilon-His, 0.3 µg/mL for h5T4-His, 1 µg/mL for NKG2A-CD94-ECD-hFc and 0.7 µg/mL for hNKG2D-ECD-hFc respectively and coat 100 µL/well on ELISA plate (cat: 9018, supplier Corning) respectively. Incubate O/N, 4° C. The plates were blocked with 250 µL 1% BSA in PBST for 1 hr at 37° C.Wash 4 times with PBST. All the washes are done using Biotek (Elx 405). All the Tribody set antibodies were diluted to 400 nM and make 4-fold serially dilutions (12 points, including 0 point). Add 100 µL/well diluted antibody constructs solution to plate, incubate for 1 hr at 37° C.Wash 4 times with PBST. Add 100 µL/well anti-human kappa light chain-HRP (1:10000), incubate for 0.5 hr at 37° C. Wash 4 times with PBST. 100 µL/well of TMB substrate was added and incubated at room temperature for 5 min. 100 µL/well of 1N HCl to terminate reaction. Plates were read using ELISA plate reader at 450 nm wavelength (instrunet SpectraMax M5e). […]

[3] = molecular target: T3, NKG2A/CD94 on CHO cells …; assay: FACS on CHO cells over-expressing human NKG2A (FIG. 45F)
Procedure: Then wash the cells 3 times with 170 µL FACS buffer. Re-suspend the cells at 100 µL/well with secondary antibody (goat anti-human Ig Fab-FITC, Cat # 2085-02, Southern biotech) with 1:400 dilution and incubate the plate for 30 min at 4° C. in dark. Centrifuge the plate at 2000 rpm, 4° C. for 5 min and discard supernatant. Then wash the cells 3 times with FACS buffer and analyze the sample with FACS verse. The fluorescence intensity of the staining was measured using flow cytometer (BD, FACSVerse). The geometric mean fluorescence intensity (GMFI; median fluorescence intensity (MFI)) of set antibodies staining was calculated (BD FACSuite software). Dose-response curves were generated and EC50s for thetrispecific variants binding were calculated using GraphPad Prism software.
Results: The expressed trispecific constructs were analyzed for their binding to cells expressing endogenous CD3ε, 5T4 and NKG2A/NKG2D. […] (FIG. 45F).

NKG2A-CD94-ECD-hFc [4] = molecular target: T4, NKG2A-CD94-ECD-hFc; assay: ELISA on coated NKG2A-CD94-ECD-hFc (FIG. 43D)
Procedure: Methods: ELISA binding of Tribody/ProTribody antibody constructs to antigens: Dilute target protein (hCD3epsilon-His (cat # 10977-H08S, supplier Sino Biological); h5T4-His (cat# 19845-H08H, supplier Sino Biological); NKG2A-CD94-ECD-hFc, Lot:20200724002, provided by CP; or NKG2D-ECD-hFc, Lot: 20200413002, provided by CP) into PBS with final concentration of 0.01 µg/mL for hCD3epsilon-His, 0.3 µg/mL for h5T4-His, 1 µg/mL for NKG2A-CD94-ECD-hFc and 0.7 µg/mL for hNKG2D-ECD-hFc respectively and coat 100 µL/well on ELISA plate (cat: 9018, supplier Corning) respectively. Incubate O/N, 4° C. The plates were blocked with 250 µL 1% BSA in PBST for 1 hr at 37° C.Wash 4 times with PBST. All the washes are done using Biotek (Elx 405). All the Tribody set antibodies were diluted to 400 nM and make 4-fold serially dilutions (12 points, including 0 point). Add 100 µL/well diluted antibody constructs solution to plate, incubate for 1 hr at 37° C.Wash 4 times with PBST. Add 100 µL/well anti-human kappa light chain-HRP (1:10000), incubate for 0.5 hr at 37° C. Wash 4 times with PBST. 100 µL/well of TMB substrate was added and incubated at room temperature for 5 min. 100 µL/well of 1N HCl to terminate reaction. Plates were read using ELISA plate reader at 450 nm wavelength (instrunet SpectraMax M5e). Data Analysis was performed using Graphpad prism 5 software by using nonlinear regression (curve fit): log (agonist) vs. response, agonist is antibody concentration (nM) and response is OD value.

NKG2D on cells = molecular target: T1, NKG2D on cells; assay: FACS, data not shown
NKG2D-ECD-hFc = molecular target: T2, NKG2D-ECD-hFc; assay: ELISA, data not shown
Procedure: as §1

T3 sequence (P26715 whole entry, chain 1 of 2): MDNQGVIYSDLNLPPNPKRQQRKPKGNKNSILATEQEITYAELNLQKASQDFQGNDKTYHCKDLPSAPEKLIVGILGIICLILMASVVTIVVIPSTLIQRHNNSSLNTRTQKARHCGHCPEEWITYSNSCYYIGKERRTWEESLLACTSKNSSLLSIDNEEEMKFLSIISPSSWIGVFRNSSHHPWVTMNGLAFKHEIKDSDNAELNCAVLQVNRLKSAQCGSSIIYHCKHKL
T3 sequence (Q13241 whole entry, chain 2 of 2): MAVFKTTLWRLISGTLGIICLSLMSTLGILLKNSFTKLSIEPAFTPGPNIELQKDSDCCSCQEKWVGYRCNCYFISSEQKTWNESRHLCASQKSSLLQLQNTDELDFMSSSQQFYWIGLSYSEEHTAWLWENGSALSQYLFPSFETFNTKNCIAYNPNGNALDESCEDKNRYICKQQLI
T4 sequence (P26715 94-233 limits assumed, chain 1 of 2): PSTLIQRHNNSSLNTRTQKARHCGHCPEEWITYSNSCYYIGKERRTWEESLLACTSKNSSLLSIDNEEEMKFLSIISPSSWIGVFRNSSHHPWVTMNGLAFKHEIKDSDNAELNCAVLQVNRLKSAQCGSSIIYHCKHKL
T4 sequence (Q13241 32-179 limits assumed, chain 2 of 2): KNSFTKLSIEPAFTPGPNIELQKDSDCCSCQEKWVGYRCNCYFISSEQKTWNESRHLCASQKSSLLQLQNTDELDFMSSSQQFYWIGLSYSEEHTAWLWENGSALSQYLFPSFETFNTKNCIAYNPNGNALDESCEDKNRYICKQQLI

Binder	fold improved binding affinity against IM-1062 [1]	fold improved binding affinity against IM-1062 (NKG2A-CD94-ECD-hFc [2])	EC50 [3]	EC50 (NKG2A-CD94-ECD-hFc [4])	binding result (NKG2D on cells)	binding result (NKG2D-ECD-hFc)
B1	~80 fold	~60 fold	0.4 nM	0.2 nM	–	–
B2	~80 fold	~60 fold	0.2 nM	0.1 nM	–	–
B3	–	–	–	–	no binding	no binding
